± gives the standard deviation of the averaged measurements.
B1: library; numbered along this chain (parent)
chain: MNIQIGELAKRTACPVVTIRFYEQEGLLPPPGRSRGNFRLYGEEHVERLQFIRHCRSLDMPLSDVRTLLSYRKRPDQDCGEVNMLLDEHIRQVESRIGALLELKHHLVELREACSGARPAQSCGILQGLSDCVCDTRGTTAHPSD

How the values were obtained:
[1] = variants of: B1; test: sfGFP reporter fluorescence (15 h) (µM FITC); higher = higher leak; conditions: library round: Round 0; ligand: none
Procedure, shortened: (§1)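 PCR-made linear PbrR templates (Echo-normalized to 5 nM) were expressed in BL21 Star (DE3) extract (PANOx-SP) with pPbrR-sfGFP reporter plasmid and 30 μg/mL GamS. Reactions were 1 μL, Echo-assembled, with 1 µM lead chloride, 30 µM zinc acetate or no metal, incubated 15 hr at 30 °C. Endpoint sfGFP fluorescence (485/528 nm, Synergy Neo2) was converted to µM FITC via standard curves in 50 mM sodium borate pH 8.5. Up to three biological replicates.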

[2] = variants of: B1; test: sfGFP reporter fluorescence (15 h) (µM FITC); higher = stronger transcriptional activation; conditions: library round: Round 0
Procedure, shortened: as §1

Row | Variant | sfGFP reporter fluorescence [1] | sfGFP reporter fluorescence ([2]; ligand: 1 µM Pb) | sfGFP reporter fluorescence ([2]; ligand: 30 µM Zn)
1 | I97C | 0.0601 ± 0.0015 | 0.0702 ± 0.0065 | 0.761 ± 0.036
2 | I97D | 0.0596 ± 0.0044 | 0.0575 ± 0.001 | 0.193 ± 0.0054
3 | I97E | 0.0574 ± 0.0044 | 0.0618 ± 0.0018 | 0.386 ± 0.055
4 | I97F | 0.0535 ± 0.0042 | 0.0592 ± 0.0029 | 0.278 ± 0.036
5 | I97G | 0.0555 ± 0.0013 | 0.0603 ± 0.0013 | 0.404 ± 0.014
6 | I97H | 0.0564 ± 0.0062 | 0.0596 ± 0.0034 | 0.263 ± 0.0018
7 | I97K | 0.0607 ± 0.0029 | 0.0597 ± 0.0021 | 0.102 ± 0.006
8 | I97L | 0.0596 ± 0.0023 | 0.0797 ± 0.0044 | 0.842 ± 0.014
9 | I97M | 0.0574 ± 0.0023 | 0.057 ± 0.0023 | 0.2807 ± 0.00052
10 | I97N | 0.0566 ± 0.0029 | 0.0603 ± 0.0039 | 0.325 ± 0.0065
11 | I97P | 0.0542 ± 0.0036 | 0.0561 ± 0.001 | 0.135 ± 0.0036
12 | I97Q | 0.057 ± 0.0029 | 0.057 ± 0.0034 | 0.287 ± 0.0088
13 | I97R | 0.0577 ± 0.0054 | 0.0564 ± 0.0015 | 0.116 ± 0.0013
14 | I97S | 0.0592 ± 0.0039 | 0.0722 ± 0.0015 | 0.554 ± 0.0062
15 | I97T | 0.0579 ± 0.0042 | 0.0662 ± 0.0034 | 0.579 ± 0.0096
16 | I97V | 0.0563 ± 0.0023 | 0.0605 ± 0.0026 | 0.338 ± 0.015
17 | I97W | 0.0585 ± 0.006 | 0.0616 ± 0.0015 | 0.176 ± 0.0073
18 | I97Y | 0.0603 ± 0.0034 | 0.0825 ± 0.0026 | 0.721 ± 0.031
19 | G98A | 0.0614 ± 0.00078 | 0.0762 ± 0.0021 | 0.793 ± 0.06
20 | L100A | 0.0803 ± 0.0015 | 0.131 ± 0.0044 | 0.663 ± 0.2
21 | L101A | 0.0632 ± 0.0013 | 0.0746 ± 0.0013 | 0.555 ± 0.17
22 | E102A | 0.0735 ± 0.0018 | 0.0771 ± 0.0029 | 0.302 ± 0.057
23 | L103A | 0.0629 ± 0.0013 | 0.06945 ± 0.00026 | 0.918 ± 0.037

Row | Variant | sfGFP reporter fluorescence [1] | sfGFP reporter fluorescence ([2]; ligand: 1 µM Pb) | sfGFP reporter fluorescence ([2]; ligand: 30 µM Zn)
24 | K104A | 0.05974 ± 0.00052 | 0.0759 ± 0.0021 | 0.591 ± 0.037
25 | K104C | 0.0614 ± 0.0091 | 0.133 ± 0.026 | 1.32 ± 0.18
26 | K104D | 0.0592 ± 0.006 | 0.138 ± 0.046 | 1.06 ± 0.18
27 | K104E | 0.0552 ± 0.0086 | 0.0691 ± 0.015 | 0.635 ± 0.12
28 | K104F | 0.0581 ± 0.011 | 0.117 ± 0.029 | 0.889 ± 0.037
29 | K104G | 0.0526 ± 0.0075 | 0.0524 ± 0.0057 | 0.22 ± 0.0034
30 | K104H | 0.0762 ± 0.0036 | 0.189 ± 0.081 | 1.56 ± 0.38
31 | K104I | 0.0616 ± 0.0057 | 0.165 ± 0.044 | 1.22 ± 0.053
32 | K104L | 0.0592 ± 0.0049 | 0.135 ± 0.03 | 1.11 ± 0.054
33 | K104M | 0.059 ± 0.0088 | 0.111 ± 0.035 | 1.13 ± 0.15
34 | K104N | 0.0557 ± 0.0073 | 0.0823 ± 0.025 | 0.879 ± 0.15
35 | K104P | 0.0509 ± 0.0073 | 0.0544 ± 0.0054 | 0.08191 ± 0.00078
36 | K104Q | 0.0601 ± 0.0026 | 0.0832 ± 0.015 | 0.901 ± 0.022
37 | K104R | 0.0621 ± 0.006 | 0.0958 ± 0.024 | 0.946 ± 0.16
38 | K104S | 0.0612 ± 0.0021 | 0.092 ± 0.02 | 1 ± 0.052
39 | K104T | 0.0619 ± 0.0021 | 0.0925 ± 0.015 | 0.865 ± 0.13
40 | K104V | 0.0652 ± 0.0088 | 0.173 ± 0.039 | 1.35 ± 0.19
41 | K104V G128I | 0.0826 ± 0.006 | 0.287 ± 0.021 | 1.84 ± 0.44
42 | K104V G128M | 0.179 ± 0.0031 | 0.808 ± 0.088 | 3.325 ± 0.0054
43 | K104V L107A | 0.166 ± 0.0088 | 0.817 ± 0.042 | 2.18 ± 0.12
44 | K104V L107C | 0.184 ± 0.0062 | 1.13 ± 0.23 | 2.31 ± 0.5
45 | K104V L107C G128I | 0.483 ± 0.024 | 2.5 ± 0.27 | 3.37 ± 0.23
46 | K104V L107C G128M | 0.701 ± 0.023 | 3.1 ± 0.15 | 4.118 ± 0.038

Row | Variant | sfGFP reporter fluorescence [1] | sfGFP reporter fluorescence ([2]; ligand: 1 µM Pb) | sfGFP reporter fluorescence ([2]; ligand: 30 µM Zn)
47 | K104W | 0.0574 ± 0.0096 | 0.0795 ± 0.013 | 0.607 ± 0.096
48 | K104Y | 0.059 ± 0.0083 | 0.113 ± 0.028 | 1.09 ± 0.13
49 | H105A | 0.0623 | 0.0687 ± 0.0044 | 0.769 ± 0.086
50 | H106A | 0.0596 ± 0.0034 | 0.0667 ± 0.00052 | 0.213 ± 0.02
51 | L107A | 0.514 ± 0.0098 | 1.97 ± 0.12 | 2.84 ± 0.79
52 | L107C | 0.491 ± 0.053 | 1.05 ± 0.062 | 2.85 ± 0.46
53 | L107C G128I | 1.34 ± 0.036 | 3.12 ± 0.11 | 4.14 ± 0.064
54 | L107C G128M | 3.17 ± 0.33 | 3.98 ± 0.14 | 4.14 ± 0.45
55 | L107D | 0.0586 ± 0.0021 | 0.0596 ± 0.0018 | 0.0579 ± 0.0026
56 | L107E | 0.05882 ± 0.00026 | 0.0746 ± 0.0096 | 0.288 ± 0.054
57 | L107F | 0.0528 ± 0.0015 | 0.0495 ± 0.0021 | 0.0636 ± 0.0039
58 | L107G | 0.05956 ± 0.00026 | 0.0836 ± 0.0036 | 0.4444 ± 0.0044
59 | L107H | 0.05662 ± 0.00026 | 0.0535 ± 0.0021 | 0.0821 ± 0.0015
60 | L107I | 0.0579 ± 0.001 | 0.0671 ± 0.0036 | 0.808 ± 0.065
61 | L107K | 0.0561 ± 0.0057 | 0.05864 ± 0.00052 | 0.0861 ± 0.0026
62 | L107M | 0.0546 ± 0.0015 | 0.0605 ± 0.0026 | 0.371 ± 0.046
63 | L107N | 0.0546 ± 0.0047 | 0.0759 ± 0.0015 | 0.511 ± 0.027
64 | L107P | 0.0568 ± 0.0015 | 0.0528 ± 0.0052 | 0.0621 ± 0.0018
65 | L107Q | 0.0579 ± 0.0047 | 0.08521 ± 0.00078 | 0.764 ± 0.047
66 | L107R | 0.059 ± 0.001 | 0.055 ± 0.0021 | 0.0781 ± 0.0031
67 | L107S | 0.12 ± 0.0091 | 0.5454 ± 0.0042 | 2.27 ± 0.042
68 | L107T | 0.0797 ± 0.0054 | 0.282 ± 0.015 | 1.93 ± 0.22
69 | L107V | 0.0854 ± 0.001 | 0.19 ± 0.022 | 2.03 ± 0.021

Row | Variant | sfGFP reporter fluorescence [1] | sfGFP reporter fluorescence ([2]; ligand: 1 µM Pb) | sfGFP reporter fluorescence ([2]; ligand: 30 µM Zn)
70 | L107W | 0.0599 ± 0.0013 | 0.0638 | 0.118 ± 0.0013
71 | L107Y | 0.0603 ± 0.0013 | 0.06762 ± 0.00026 | 0.209 ± 0.0091
72 | V108A | 0.06304 ± 0.00052 | 0.0729 ± 0.0042 | 0.408 ± 0.11
73 | V108C | 0.0594 ± 0.0026 | 0.0788 ± 0.0015 | 1.04 ± 0.091
74 | V108D | 0.061 ± 0.00078 | 0.0931 ± 0.0015 | 1.45 ± 0.068
75 | V108E | 0.0579 ± 0.001 | 0.06652 ± 0.00026 | 0.62 ± 0.11
76 | V108F | 0.0561 ± 0.001 | 0.0685 ± 0.001 | 0.436 ± 0.028
77 | V108G | 0.057 ± 0.00078 | 0.0658 ± 0.0049 | 0.567 ± 0.1
78 | V108H | 0.05772 ± 0.00026 | 0.0814 ± 0.0073 | 0.846 ± 0.019
79 | V108I | 0.0566 ± 0.0013 | 0.0667 ± 0.0026 | 0.508 ± 0.011
80 | V108K | 0.0607 ± 0.00078 | 0.0803 ± 0.0026 | 1.13 ± 0.093
81 | V108L | 0.0594 ± 0.001 | 0.0696 ± 0.0026 | 0.616 ± 0.035
82 | V108M | 0.05662 ± 0.00026 | 0.0682 ± 0.0026 | 0.583 ± 0.019
83 | V108N | 0.0574 ± 0.0013 | 0.06414 ± 0.00052 | 0.611 ± 0.073
84 | V108P | 0.0572 ± 0.0015 | 0.06011 ± 0.00052 | 0.0621 ± 0.0018
85 | V108Q | 0.0566 ± 0.00078 | 0.068 ± 0.0018 | 0.672 ± 0.06
86 | V108R | 0.059 | 0.0788 ± 0.0021 | 0.8752 ± 0.0047
87 | V108S | 0.0568 ± 0.0026 | 0.0696 | 0.772 ± 0.061
88 | V108T | 0.0588 ± 0.00078 | 0.0724 ± 0.00078 | 0.795 ± 0.063
89 | V108W | 0.0583 ± 0.001 | 0.072 ± 0.0029 | 0.554 ± 0.0067
